These results are taken from patent publication US20250122304A1, “PRE-TARGETING” (Precirix N.V., priority 2022, published 2025).

To fix the notation:
T1: human FAP (Homo sapiens, UniProt Q12884)
T1 sequence (Q12884 1-760): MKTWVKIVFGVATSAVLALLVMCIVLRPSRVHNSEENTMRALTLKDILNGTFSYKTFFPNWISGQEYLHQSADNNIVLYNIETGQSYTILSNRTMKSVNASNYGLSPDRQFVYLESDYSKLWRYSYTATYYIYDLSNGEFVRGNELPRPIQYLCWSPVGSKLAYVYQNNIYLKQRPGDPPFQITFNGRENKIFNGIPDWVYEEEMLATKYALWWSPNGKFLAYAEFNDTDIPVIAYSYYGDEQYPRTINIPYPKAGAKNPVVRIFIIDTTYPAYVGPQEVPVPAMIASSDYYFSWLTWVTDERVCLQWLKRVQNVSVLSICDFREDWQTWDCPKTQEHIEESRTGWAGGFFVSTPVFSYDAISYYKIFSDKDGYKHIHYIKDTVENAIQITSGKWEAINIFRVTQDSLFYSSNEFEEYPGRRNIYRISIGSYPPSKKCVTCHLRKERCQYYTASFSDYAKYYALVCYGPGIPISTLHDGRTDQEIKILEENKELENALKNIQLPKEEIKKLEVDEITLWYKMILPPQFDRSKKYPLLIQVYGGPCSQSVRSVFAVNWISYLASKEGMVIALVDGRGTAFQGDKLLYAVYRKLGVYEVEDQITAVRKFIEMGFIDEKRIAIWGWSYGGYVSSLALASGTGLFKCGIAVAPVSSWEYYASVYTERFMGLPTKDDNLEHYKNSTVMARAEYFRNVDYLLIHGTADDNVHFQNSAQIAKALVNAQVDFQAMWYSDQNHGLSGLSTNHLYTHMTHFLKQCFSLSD

T2: human fibroblast activation protein (FAP) (human, UniProt Q12884 26-760)
T2 construct: also called human FAP; hFAP
T2 sequence: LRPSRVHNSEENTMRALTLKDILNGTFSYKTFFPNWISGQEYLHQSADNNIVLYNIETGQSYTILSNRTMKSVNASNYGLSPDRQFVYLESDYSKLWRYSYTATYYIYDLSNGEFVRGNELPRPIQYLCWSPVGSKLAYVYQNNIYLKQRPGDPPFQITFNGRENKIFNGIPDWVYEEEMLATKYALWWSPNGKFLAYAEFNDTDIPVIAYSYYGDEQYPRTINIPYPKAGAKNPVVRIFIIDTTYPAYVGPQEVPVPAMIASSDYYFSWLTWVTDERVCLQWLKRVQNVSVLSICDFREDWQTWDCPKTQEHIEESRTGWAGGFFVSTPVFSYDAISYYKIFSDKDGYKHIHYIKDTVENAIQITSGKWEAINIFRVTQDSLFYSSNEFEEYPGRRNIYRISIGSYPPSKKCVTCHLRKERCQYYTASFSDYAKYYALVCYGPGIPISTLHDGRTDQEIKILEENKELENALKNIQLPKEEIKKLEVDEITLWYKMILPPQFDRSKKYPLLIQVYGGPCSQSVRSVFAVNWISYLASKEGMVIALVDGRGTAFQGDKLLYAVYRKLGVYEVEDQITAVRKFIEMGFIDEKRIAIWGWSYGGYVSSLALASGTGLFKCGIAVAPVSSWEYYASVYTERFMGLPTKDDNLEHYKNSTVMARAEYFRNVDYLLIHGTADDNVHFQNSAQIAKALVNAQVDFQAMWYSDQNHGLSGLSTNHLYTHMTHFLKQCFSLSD

B1: VHH1: VHH, target FAP, SEQ ID NO 4 (protein)
VHH: DVQLVESGGGLVQPGGSLRLSCVASGRLSSSNSMAWYRQVPGKRRELVAGITGGGETNYADFVGGRFTISRDNAKNGLYLQLNGLKPEDTAAYYCNFWPPLINYWGQGTQVTVSS
modifications: VHH1
B2: VHH6: VHH, target FAP, SEQ ID NO 89 (protein)
VHH: DVQLVESGGGLVQAGGSLRLSCAVSGSISSANSMGWYRQAPGKQRDVVAGLTTGGRSHYADSVKGRFTISRDNAKNTVYLQMNSLKAEDTAVYYCNLWPPVQGYWGQGTQVTVSS
B3: VHH7: VHH, target FAP, SEQ ID NO 90 (protein)
VHH: QVQLQESGGGLVQAGGSLRLSCTASGTFSGRNAMAWYRQAPGKRRELVAGIRSDDSTNYVDSVKGRFTISRDNAKNTVYLQMNSLRPEDTAVYYCNLWPPVIGAGFGSWGQGTQVTVSSAAAYPYDVPDYGSHHHHHH
B4: VHH9: VHH, target FAP, SEQ ID NO 92 (protein)
VHH: QVQLQESGGGLVQSGGSLRLSCVASGSISSINAMGWYRQAPGNKREWVAGITSGGSTNYADAVLGRFSIFRDNPKNTVYLQMNSLKPEDTAVYYCNTWPPSTFGSWGQGTQVTVSSAAAYPYDVPDYGSHHHHHH
B5: VHH8: VHH, target FAP, SEQ ID NO 91 (protein)
VHH: QVQLQESGGGTVQPGGSLRLSCAASGISVSIASMAWYRQAPGKQRELVAGIISGGSTNYADSVKGRFTISRDNAKKVVLLQMNSLKPEDTAVYYCNTYPPFVGPGATATWGQGTQVTVSSAAAYPYDVPDYGSHHHHHH
B6: TCO-VHH1: VHH1, functionalized with transcyclooctene (TCO) (conjugate)
VHH: B1 VHH
modifications: cyclised or stapled
B7: TCO-VHH7 (conjugate)
VHH: B3 VHH
modifications: cyclised or stapled
B8: TCO-VHH9: TCO conjugated VHH9 (FAP binding) (conjugate)
VHH: B4 VHH
modifications: cyclised or stapled
B9: TCO-VHH8 (conjugate)
VHH: B5 VHH
modifications: cyclised or stapled
B10: VHH1 (VHH)
VHH: B1 VHH
notes: Anti-FAP VHH, tested before TCO conjugation; also called VHH VHH1; unconjugated VHH1
B11: VHH8 (VHH)
VHH: QVQLQESGGGTVQPGGSLRLSCAASGISVSIASMAWYRQAPGKQRELVAGIISGGSTNYADSVKGRFTISRDNAKKVVLLQMNSLKPEDTAVYYCNTYPPFVGPGATATWGQGTQVTVSS
notes: Anti-FAP VHH, tested before TCO conjugation; also called unconjugated VHH8
B12: VHH7 (VHH)
VHH: QVQLQESGGGLVQAGGSLRLSCTASGTFSGRNAMAWYRQAPGKRRELVAGIRSDDSTNYVDSVKGRFTISRDNAKNTVYLQMNSLRPEDTAVYYCNLWPPVIGAGFGSWGQGTQVTVSS
notes: Anti-FAP VHH, tested before TCO conjugation; also called unconjugated VHH7

The first assay concerns the target T1, human FAP. Nature of the assay: BLI (Octet) binding kinetics pre- and post-TCO conjugation (Example 7, Table 17). As to conditions: Post conjugation (TCO). As to the method:
Five VHHs binding the target (human FAP) with different dissociation rate constants were conjugated to TCO-NHS. Using the BLI technology on Octet system the binding kinetics towards human FAP were determined for each of the five VHHs pre- and post-TCO conjugation.
B1 gave a koff of 4.99e-05 s⁻¹ and a kon of 694000 M⁻¹ s⁻¹.

Molecule B2 registered a koff of 0.000157 s⁻¹ and a kon of 1.07e+06 M⁻¹ s⁻¹.

B3 came in with a koff of 0.000123 s⁻¹ and a kon of 746000 M⁻¹ s⁻¹.

B4 had a koff of 0.0012 s⁻¹ and a kon of 1.26e+06 M⁻¹ s⁻¹.

In turn, B5 gave a koff of 0.000559 s⁻¹ and a kon of 833000 M⁻¹ s⁻¹.

Still in this assay, the particulars now being: Pre conjugation (TCO).
On to B1, for which the koff was determined as 8.52e-05 s⁻¹ and the kon is 1.77e+06 M⁻¹ s⁻¹.

B2: the off-rate constant (koff) is 0.000188 s⁻¹ and the kon is 3.41e+06 M⁻¹ s⁻¹.

With B3, the koff was determined as 0.000197 s⁻¹ and the kon is 2.4e+06 M⁻¹ s⁻¹.

B4 came in with a koff of 0.0018 s⁻¹ and a kon of 3.98e+06 M⁻¹ s⁻¹.

B5 came in with an off-rate (koff) of 0.000679 s⁻¹ and a kon of 1.01e+06 M⁻¹ s⁻¹.

The next assay concerns the target T1, human FAP. In words: BLI click reaction with Tz-R3B23 on TCO-VHHs bound to target, span (Example 7, Table 18). Particulars: Experiment 1, click reaction with 50 nM Tz-R3B23 for 20 minutes, signal difference vs assay buffer. As to the method: Next, Octet Streptavidin (SA) Biosensors were coated with 5 μg/mL biotinylated human FAP in assay buffer (HBS+0.5% BSA+0.1% Tween20) for 5 minutes. The sensors were then dipped in wells containing a 5 nM solution of the different VHHs (both TCO conjugated and unconjugated as control) for 20 minutes (association step) and further transferred to the assay buffer (dissociation step) for 30 minutes. After the dissociation phase, that simulates the lag time, the sensors were transferred to either a well containing 50 nM of a tetrazine-coupled, non-FAP binding R3B23 (Tz-R3B23) or to a well containing assay buffer as a control. This reaction was allowed to proceed for 20 minutes (experiment 1) or 30 minutes (experiment 2) after which the sensors were washed for 30 minutes in assay buffer. In the second experiment the TCO-VHHs were measured in duplicate (referred to as assay 1 and 2 of ‘experiment 2’ in the table below). Using the epitope binning function of ‘Octet Analysis Software’ we then determined the difference in signal between the VHHs incubated with Tz-R3B23 and the VHHs incubated with assay buffer. […] The span of unconjugated VHHs was considered as noise.
The molecule B1 gave a Span of 0.0089.

B6 returned a Span of 0.0237.

B2: the Span is reported as 0.0021.

On to B3, for which the Span turned out to be 0.0082.

As to B7, the Span came out at 0.0145.

B8: the Span stood at 0.0015.

For B4, the Span is on record as 0.0040.

B5: the Span came out at 0.0096.

B9: the Span is reported as 0.0224.

Staying with this assay, now noted: Experiment 2, 1st assay, click reaction with 50 nM Tz-R3B23 for 30 minutes, signal difference vs assay buffer.
In turn, B1 displayed a Span of 0.0004.

In turn, B6 registered a Span of 0.0334.

Take B2: the Span worked out at 0.0017.

B3 registered a Span of 0.0018.

In turn, B7 returned a Span of 0.0186.

On to B8, for which the Span is 0.0091.

Regarding B4, the Span is given as −0.0008.

The molecule B5 displayed a Span of 0.0028.

In turn, B9 came in with a Span of 0.0218.

The same assay, now with this note: Experiment 2, 2nd assay, click reaction with 50 nM Tz-R3B23 for 30 minutes, signal difference vs assay buffer.
In turn, B6 came in with a Span of 0.0257.

In turn, B7 came in with a Span of 0.0230.

B8 returned a Span of 0.0113.

Consider B9, for which the Span came to 0.0341.

The assay is the same for the next values; noted with them: both experiments.
Regarding B5, the “span of unconjugated VHHs (noise)” value is “the highest”.

Still in this assay, the particulars now being: experiment 1 (20 minutes Tz-R3B23).
For B8, the “click reaction (span versus noise value)” value is “no click reaction took place”.

Still in this assay, the particulars now being: experiment 2 (30 minutes Tz-R3B23), both assays.
Take B8: the “click reaction (span versus noise value)” value is listed as “just above the noise value”.

The target in a further assay is T2, human fibroblast activation protein …. Nature of the assay: BLI (Octet), kinetics to human FAP, pre TCO conjugation.
Conditions: not given
As to the method:
Using the BLI technology on Octet system the binding kinetics towards human FAP were determined for each of the five VHHs pre- and post-TCO conjugation.
The molecule B10 registered a Kd of 48.2 pM, a koff of 8.52e-05 s⁻¹ and an on-rate constant (kon) of 1.77e+06 M⁻¹ s⁻¹.

Turning to B11, the Kd was 672 pM, the koff stood at 0.000679 s⁻¹ and the kon was found to be 1.01e+06 M⁻¹ s⁻¹.

Consider B12, for which the Kd came to 81.9 pM, the koff was found to be 0.000197 s⁻¹ and the kon came out at 2.4e+06 M⁻¹ s⁻¹.
